The target of one assay is T1, GST-IκBα (UniProt P25963 1-317).
T1 construct: Bought (Millipore, Billerica, Mass.); not shown: glutathione S-transferase (GST) fusion moiety
T1 sequence (looked up): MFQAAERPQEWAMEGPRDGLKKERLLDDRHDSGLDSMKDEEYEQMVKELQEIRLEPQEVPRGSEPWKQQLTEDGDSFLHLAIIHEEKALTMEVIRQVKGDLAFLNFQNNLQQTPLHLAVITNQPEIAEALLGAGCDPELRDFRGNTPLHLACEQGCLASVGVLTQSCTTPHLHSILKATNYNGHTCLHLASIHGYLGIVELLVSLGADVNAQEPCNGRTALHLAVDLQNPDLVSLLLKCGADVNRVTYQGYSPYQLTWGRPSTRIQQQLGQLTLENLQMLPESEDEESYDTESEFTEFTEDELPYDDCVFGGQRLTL
Description: GST pull-down of purified p65(1-180), immunoblot anti-p65. (Immunoblotting shows a protein as a band on a membrane.)

Assay [1] addresses T2, NF-κB p65 (in cells / cell lysates) (human, UniProt Q04206 1-551).
T2 construct: Endogenous protein of the cell lines
Description: co-immunoprecipitation with anti-p65 from ZR-75-1, MCF-7 and U-937/MUC1-C cell lysates, immunoblot anti-MUC1-C. Here is the method: Immunoprecipitation and immunoblotting. Lysates from sub-confluent cells were prepared as described (Ren et al., 2004). Soluble proteins were precipitated with anti-NF-κB p65 (Santa Cruz Biotechnology, Santa Cruz, Calif.). […] Immune complexes were detected with horseradish peroxidase-conjugated secondary antibodies (GE Healthcare Biosciences, Piscataway, N.J.) and enhanced chemiluminescence (GE Healthcare).
MUC1-C associates with NF-κB p65. To determine whether MUC1 interacts with NF-κB, anti-NF-κB p65 precipitates from ZR-75-1 breast cancer cells were immunoblotted with an antibody against the MUC1-C subunit cytoplasmic domain. […] Similar findings were obtained with lysates from MCF-7 breast cancer cells, which also overexpress endogenous MUC1 (FIG. 1B). To determine whether the MUC1-N subunit is necessary for the association, studies were performed on U-937 cells that stably express exogenous MUC1-C and not MUC1-N (Agata et al., 2008).

Assay [2] concerns the target T3, STAT3 (in cells / cell lysates) (human, UniProt P40763 2-770).
T3 construct: Endogenous protein of the cell lines
The experiment in a line: co-immunoprecipitation with anti-STAT3 from ZR-75-1 and MCF-7 cell lysates, immunoblot anti-MUC1-C. The procedure: (§1) FIGS. 9A-D: MUC1-C binds directly to the STAT3 DBD. (FIG. 9A) Lysates from ZR-75-1 (left) and MCF-7 (right) cells were subjected to immunoprecipitation with anti-STAT3 or a control IgG. The precipitates were immunoblotted with the indicated antibodies. (FIG. 9B) Lysates from ZR-75-1 cells were incubated with GST and GST-MUC1-CD bound to glutathione beads. The adsorbates were immunoblotted with anti-STAT3 Input of the GST and GST-MUC1-CD proteins was assessed by Coomassie blue staining. (FIG. 9C) Amino acid sequence of the MUC1 cytoplasmic domain is shown with the indicated phosphorylation and binding sites. GST, GST-MUC1-CD, GST-MUC1-CD (1-45) and GST-MUC1-CD (46-72) bound to glutathione beads were incubated with purified recombinant STAT3. The adsorbates were immunoblotted with anti-STAT3. Input of the GST and GST-MUC1-CD fusion proteins was assessed by Coomassie blue staining. (FIG. 9D) Structure of STAT3. GST, GST-STAT3 (full length; amino acids 1-770), […], […] and […] bound to glutathione beads were incubated with purified MUC1-CD. Adsorbates were immunoblotted with anti-MUC1-C. Input of the GST and GST-STAT3 fusion proteins was assessed by Coomassie blue staining.
(§2) MUC1-C directly interacts with STAT3. […]

For assay [3], the target named is T4, purified recombinant NF-κB p65 (UniProt Q04206 1-551, limits assumed).
T4 construct: also called purified NF-κB p65
The experiment in a line: GST pull-down of purified recombinant p65, immunoblot anti-p65.

Assay [4] concerns the target purified recombinant STAT3 (UniProt P40763 1-770, limits assumed). The experiment in a line: GST pull-down of purified recombinant STAT3, immunoblot anti-STAT3. Here is the method:
as §1, §2

Assay [5] has as its target T5, GST-STAT3 (N-terminal; amino acids 1-257) (UniProt P40763 1-257).
T5 construct: range 1-257; The legend names it GST-MUC1-CD, but the text and the end of the legend speak of STAT3 deletion mutants / GST-STAT3 fusion proteins; also called dimerization domain; printed in the legend as GST-MUC1-CD (N-terminal: amino acids 1-257); not shown: glutathione S-transferase (GST) fusion moiety
The experiment in a line: GST-STAT3 deletion mutants on glutathione beads incubated with purified MUC1-CD, immunoblot anti-MUC1-C. Here is the method:
as §1, §2

In assay [6] the target is T6, GST-STAT3 (C-terminal; amino acids 514-770) (UniProt P40763 514-770).
T6 construct: range 514-770; The legend names it GST-MUC1-CD, but the text and the end of the legend speak of STAT3 deletion mutants / GST-STAT3 fusion proteins; also called printed in the legend as GST-MUC1-CD (C-terminal); not shown: glutathione S-transferase (GST) fusion moiety
Described as above. The procedure: as §1, §2

Ends that are not written are not given here.

These results are taken from patent publication US20110015138A1 (GENUS ONCOLOGY, published 2011).

T5 sequence (P40763 1-257): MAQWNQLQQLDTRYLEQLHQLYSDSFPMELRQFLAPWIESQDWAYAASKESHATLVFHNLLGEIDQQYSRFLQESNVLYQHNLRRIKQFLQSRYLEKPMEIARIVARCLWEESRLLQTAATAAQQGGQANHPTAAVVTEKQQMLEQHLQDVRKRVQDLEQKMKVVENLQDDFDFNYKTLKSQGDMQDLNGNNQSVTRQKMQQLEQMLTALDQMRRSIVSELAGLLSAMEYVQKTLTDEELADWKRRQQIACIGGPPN
T6 sequence (P40763 514-770): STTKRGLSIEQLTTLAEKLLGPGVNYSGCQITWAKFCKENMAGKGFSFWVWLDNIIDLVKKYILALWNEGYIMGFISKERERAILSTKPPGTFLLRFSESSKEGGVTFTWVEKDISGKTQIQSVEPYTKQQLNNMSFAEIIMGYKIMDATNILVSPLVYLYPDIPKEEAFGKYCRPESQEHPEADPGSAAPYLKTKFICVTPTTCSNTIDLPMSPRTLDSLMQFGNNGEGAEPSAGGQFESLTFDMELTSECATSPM
purified recombinant STAT3, sequence (P40763 whole entry): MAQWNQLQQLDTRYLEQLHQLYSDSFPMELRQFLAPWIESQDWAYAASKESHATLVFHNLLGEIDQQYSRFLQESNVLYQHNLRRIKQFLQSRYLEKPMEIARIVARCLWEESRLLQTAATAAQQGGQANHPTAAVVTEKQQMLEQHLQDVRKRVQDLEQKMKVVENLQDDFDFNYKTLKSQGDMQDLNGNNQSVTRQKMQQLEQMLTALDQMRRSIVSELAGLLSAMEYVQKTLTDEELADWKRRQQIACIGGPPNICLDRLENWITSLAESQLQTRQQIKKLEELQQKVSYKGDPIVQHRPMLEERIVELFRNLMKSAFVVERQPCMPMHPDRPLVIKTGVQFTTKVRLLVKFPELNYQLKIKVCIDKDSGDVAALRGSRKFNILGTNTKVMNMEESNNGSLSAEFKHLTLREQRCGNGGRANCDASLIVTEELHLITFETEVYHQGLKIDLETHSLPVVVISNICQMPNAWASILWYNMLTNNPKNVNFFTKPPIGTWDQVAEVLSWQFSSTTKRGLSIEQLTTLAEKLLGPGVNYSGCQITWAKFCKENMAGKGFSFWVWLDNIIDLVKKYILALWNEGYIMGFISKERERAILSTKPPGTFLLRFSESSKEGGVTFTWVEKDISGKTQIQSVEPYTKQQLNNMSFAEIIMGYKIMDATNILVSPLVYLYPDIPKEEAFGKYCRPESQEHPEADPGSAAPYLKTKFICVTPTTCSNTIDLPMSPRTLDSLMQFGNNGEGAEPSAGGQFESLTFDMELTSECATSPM
T3 sequence (P40763 2-770 limits assumed): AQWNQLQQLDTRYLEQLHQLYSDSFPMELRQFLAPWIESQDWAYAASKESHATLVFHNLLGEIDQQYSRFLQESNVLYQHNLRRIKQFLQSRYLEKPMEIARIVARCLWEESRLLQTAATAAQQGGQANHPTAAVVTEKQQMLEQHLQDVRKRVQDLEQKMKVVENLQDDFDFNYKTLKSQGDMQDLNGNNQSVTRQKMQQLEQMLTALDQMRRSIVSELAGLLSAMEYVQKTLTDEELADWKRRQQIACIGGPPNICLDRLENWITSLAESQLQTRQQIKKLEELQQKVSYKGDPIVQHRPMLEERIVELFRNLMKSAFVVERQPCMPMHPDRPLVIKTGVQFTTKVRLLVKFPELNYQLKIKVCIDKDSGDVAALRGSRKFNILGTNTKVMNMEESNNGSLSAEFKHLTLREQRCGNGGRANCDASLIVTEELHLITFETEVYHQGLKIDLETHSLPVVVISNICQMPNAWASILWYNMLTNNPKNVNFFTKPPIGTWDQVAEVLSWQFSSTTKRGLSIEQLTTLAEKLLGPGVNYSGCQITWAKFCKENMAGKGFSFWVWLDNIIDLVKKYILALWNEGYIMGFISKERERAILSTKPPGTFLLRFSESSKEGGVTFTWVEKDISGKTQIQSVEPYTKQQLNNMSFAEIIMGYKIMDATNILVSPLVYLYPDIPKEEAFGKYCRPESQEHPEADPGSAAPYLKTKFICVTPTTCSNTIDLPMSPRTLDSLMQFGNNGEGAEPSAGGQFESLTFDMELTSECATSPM

B1: p65(1-180) (other, UniProt Q04206 1-180, looked up)
chain: MDELFPLIFPAEPAQASGPYVEIIEQPKQRGMRFRYKCEGRSAGSIPGERSTDTTKTHPTIKINGYTGPGTVRISLVTKDPPHRPHPHELVGKDCRDGFYEAELCPDRCIHSFQNLGIQCVKKRDLEQAISQRIQTNNNPFQVPIEEQRGDYDLNAVRLCFQVTVRDPSGRPLRLPPVLS
notes: range 1-180; Purified deletion mutant; also called purified p65(1-180)
Take B1: the binding result with GST-IκBα is “no binding”.

B2: MUC1 C-terminal subunit (MUC1-C), in cells (receptor)
chain: SVVVQLTLAFREGTINVHDVETQFNQYKTEAASRYNLTISDVSVSDVPFPFSAQSGAGVPGWGIALLVLVCVLVALAIVYLIALAVCQCRRKNYGQLDIFPARDTYHPMSEYPTYHTHGRYVPPSSTDRSPYEKVSAGNGGSSLSYTNPAVAATSANL
notes: Endogenous MUC1-C in lysates of ZR-75-1, MCF-7 and MCF-10A cells, or exogenous MUC1-C in U-937 cells and exogenous MUC1 in HeLa cells
With B2, the binding result in assay [1] and in assay [2] was “binds” each time.

B3: GST-MUC1-CD(1-45) (other)
chain: CQCRRKNYGQLDIFPARDTYHPMSEYPTYHTHGRYVPPSSTDRSP
modifications: cysteine pairing not given here; also: GST fusion
notes: Deletion mutant of GST-MUC1-CD; residues counted on the 72 amino acid cytoplasmic domain; not shown: glutathione S-transferase (GST) fusion moiety
For the molecule B3, the binding result in assay [3] and in assay [4] was “no binding” throughout.

B4: MUC1-CD (purified, GST moiety removed with thrombin) (other)
chain: CQCRRKNYGQLDIFPARDTYHPMSEYPTYHTHGRYVPPSSTDRSPYEKVSAGNGGSSLSYTNPAVAATSANL
notes: also called purified MUC1-CD; MUC1-C cytoplasmic domain
As for B4, the binding result in assay [5] and in assay [6] was “no binding” each time.
